From a protein production outcome set (Wang et al. 2014)

Experiment: label from the status in PepcDB records
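Also: failed if final PepcDB status was selected cloned or expressed and not failed if soluble or beyond.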

Sequence	protein production
MELDDAYANGAYIEGAADYPPRWAASAEDFRNSLQDRARLNLSYGEGDRHKFDLFLPEGTPVGLFVFVHGGYWMAFDKSSWSHLAVGALSKGWAVAMPSYELCPEVRISEITQQISQAVTAAAKEIDGPIVLAGHSAGGHLVARMLDPEVLPEAVGARIRNVVPISPLSDLRPLLRTSMNEKFKMDADAAIAESPVEMQNRYDAKVTVWVGGAERPAFLDQAIWLVEAWDADHVIAFEKHHFNVIEPLADPESDLVAVITA	not failed
MQWRFCLTTVLGVVLSFSPSVKVQAQGLESLTYYTENYPPLNFAKEDGKPAGIAVDLLLEAAAAVNVTLNLDQIFVQPWPRSYRSALLKQDGVLFSTTRTTHRENLFNWVGPIADIKVVVLARKSSQIKVNDPIELGNYRIGVIRDDIGEQQLLQLGVPRESMVEGSTVSSLAEQLLKKRIDLLAYDERTALWWMSQDSYPVEEFETVYVLMQGSLYYAFNKNIDKSVLNDLQKGIELIKNSVNENGVTRYQAILDKY	failed
DDVTLLTVPGWGNSGDTHWHGYWEKTYPLARRAEQRDWLYPTRDEWVAGLAAAVAEIPGKLVIAAHSLGCHTTVAWLLQATLLEQRKVKGALLVAPPAIPLTDERARASGELPEGAPLPTFAGFETLPERKLPVPALLVASRDDPFCEFEEARRMAELWGAEFVDGGMAGHMGSHAGLGSWPAGQRLLQRLI	failed
MKKFAIMGLGTFGVRMLDELIKIGAEVIIIEQNKDLIEMYKSKASSAIVLEEISELSVRKILPSKVDTVIVDFGRKVELSVISTTILKNLGIANIVVRAQSDEHGRLLKTVGATRIIYPDSEAAKRTTPILAADLLLKFMPISKNLALAEVGVEARYVGKSLAESNIRKDMGVNIIARRKKESEDFIFMDDPEYKFEEDDVLLVVASEEHIYNFSGGKISLKNNLKKDGEIKPSIFKNLFSSKKV	failed
MKRLMFIGPSQCGKTSLTQSLRGEALHYKKTQAIEWSPMAIDTPGEYLENRCLYSALLTSACEADVIALVLNADAQWSPFSPGFTAPMNRPTIGLVTKADLAEPQRISLVAEWLTQAGAQQIFITSALNNSGLDAVLDFLNSKEPLCLTKLEHHHHHH	not failed
MTKMLKLFDAHFHIIDYRFPLITNQSYLPPEFTVEDYLQRAKPLNICGGAVVSGSFQAFDQSYLLAALSILGSDFVGVTQLPATVSDEEIIQLNQKGIRAVRFNVKRGGSENIHRLKYFAHRIYEMVRWHVEIYVDSKDLGDLTSLLLELPAVSIDHLGLSHSGFSQLLHLVEHGIKIKASGFGRVDFDVKKALQTIAQINPDALLFGTDLPSTRAPRPFLDSDIQIIQDLFDEKLTEKILYRNARNFYSKNSSELEHHHHHH	not failed
MAFKVVISDKEKSVQMEVDPSESRGLIGLTIGDEFDGSIIGLSGYKLKITGGSDKNGFPMKKTVPGARRIRSLVSGGVGYKPRRDGERRRKTFRGNTISDDIVQINTVVIEKGEKPLEELLGADEELEHHHHHH	failed
TEERLKEIEAKYDEIAKDWPKKVKHVLHEEHELELTRVQVYTCDKCEEEGTIWSYHCDECDFDLHAKCALNEDTKE	not failed
MGKGDPKKPRGKMSSYAFFVQTCREEHKKKHPDASVNFSEFSKKCSERWKTMSAKEKGKFEDMAKADKARYEREMKTYIPPKGETKKKFKDPNAPKRPPSAFFLFCSEYRPKIKGEHPGLSIGDVAKKLGEMWNNTAADDKQPYEKKAAKLKEKYEKDIAAYRAKGKPDAAKKGVVKAEKSKKKKEEEEDEEDEEDEEEEEDEEDEDEEEDDDDE	failed
MFNKKKTIASLIVLSSLASQIALTPISALADTHDTNNIALLQNTNENVPYKYTSTLTFPTLTNQTQEDYKLEIKLALPSGMNYTDLQVSVGGEDITNQVGTTSFDNSTNTVTFKFDKVTSWDSLSKAKVKFDWKTSYSGEGGEAKIDSLVATATATSEDKAGNKSTSTGSLKPKDISAPVVKAEETEITYSPGSDVTEEQFLTDIHASVTDNYDSTISLTSNFTSAVNLAVSGDYSVNVQATDKAGNVSNTLNVTVHVSTPAPVAGANITVNHLDSNGNKIAESDTLTGVVNSNYQSESKKITGYTLETTPTNATGTFTDTPQTVDYIYKKDTVTPTPITVNPVEPVKPVNPVVNKPVTVKPANDNTNPSTSNSVEKTTYSSLPTTGDTDQSKSSTIFGALLLLISAPLLLFKKK	failed
MKEFLNSLSYGISSHEVNNEFKQIFRELLTNHIIKEHKNKYYLNNGFAFGVLDISSKGTGFLQCFDESFKKDLLIENKNLKGANYKDIVAVKLLPLKKKRPSAKVILVLKRANETSLMITKRYGEAVLGMNIKTGLSTALKASQKSLKALPLGTILKIENENNNIIEVLGHIDDESVDEKISLALFNKNNEFSDACIKEALANGDSVDASMYENRMDLRALPFCTIDPIHAKDFDDAIYFDTQKREIYVAIADVSEYVYAYSAIDKEARNRGFSIYFPHIAIPMLPRPLSENICSLKPHLDRLAYCFKITLNHENKVIKEELFEGIINSKRRFNYDEVDEILIQKPDLKELSWLYELFEITKNLRKMRLKNAFEFRTEELRMNLDENLSLKSTVFEKDTPSHNLIEDCMLLANKAAAKLIDIGVFRNHLSADVRKIDKLLNELRELGIDVNFKPNLPELIRDIQALADELNLRAEVDKLIIKAQKKAEYSSVNAGHFGLGFDKYSHFTSPIRRYSDLILHRLLKAKQKNDEKLFNYLLLNIESTCENLSTLEREADKVAFDFMDRKFARWAAKNIGKKFKALVVQNDGVCIAKLDDEIKGADIILYDTRVNLLENVEVQIMEADIVMAKIYAKITQRLIKEENV	failed
LRASEESFRQAFEYAPSGMAIAEMGGDQHGRILRTNDALCRLLGRPASAMRRYSFSDLVHPEDIGTLLRTSAEGGRAELRLGRRDGTYVWVSLRNSVVADAADGPRFLLTHVEDIEERKRRELQLAHRASHDSLTGLPNSAELRSRLSARLCRRPQSAELGAVESLDAAYAHGQYTTEHPAAYDTSGHGEQPGHGHGFDFTQGPGPYDAFDHHVHTVAPEGQTDDGTKGLAVLFCDLDGFKSINDRFGH	failed
MLNPSLDIISLMAYLTSSSLVGLKLLNFSINLFISSSFLTFLKSLKCSLILPISMPANSGILFTAVSFMLARSLAMSSFGVFSSIINLFTTIHLPYLAVKLI	failed
ETNEITIGITVTTTGPAAALGIPERNALEFVAKEIGGHPLKVIVLDDGGDPTAATTNARRFVTESKADVIMGSSVTPPTVAVSNVANEAQVPHIALAPLPITPERAKWSVAMPQPIPIMGKVLYEHMKKNNIKTVGYIGYSDSYGDLWFNDLKKQGEAMGLKIVAEERFARPDTSVAGQVLKLVAANPDAILVGASGTAAALPQTSLRERGYKGLIYQTHGAASMDFIRIAGKSAEGVLMASGPVMDPEGQDDSALTKKPGLELNTAYEAKYGPNSRSQFAAHSFDAFKVLERVVPVALKTAKPGTQEFREAIRKALVSEKDIAASQGVYSFTETDRYGLDDRSRILLTVKDGKYVMVK	not failed
MKELIRKLTEAFGPSGREEEVRSIILEELEGHIDGHRIDGLGNLIVWKGSGEKKVILDAHIDEIGVVVTNVDDKGFLTIEPVGGVSPYMLLGKRIRFENGTIGVVGMEGETTEERQENVRKLSFDKLFIDIGANSREEAQKMCPIGSFGVYDSGFVEVSGKYVSKAMDDRIGCAVIVEVFKRIKPAVTLYGVFSVQEEVGLVGASVAGYGVPADEAIAIDVTDSADTPKAIKRHAMRLSGGPALKVKDRASISSKRILENLIEIAEKFDIKYQMEVLTFGGTNAMGYQRTREGIPSATVSIPTRYVHSPSEMIAPDDVEATVDLLIRYLGA	not failed
MDYFRSPDGPMFMIICGEGPCSGIANDYINESLNKKLNISSGGSDNPWFFFGISYSGALSAWFRLKFPHLTCGSLASSAVVRAIYEFSEFDQQIGESAGQECKLALQETNKLLELGLKVKNKAVKSLFNATELDVDADFLYLTADAAVMAFQYGNPDKLCVPLVEAKKNGSDLVVTYSTYVREYCMRIWGLRVRTYNRKHLRNTVVTADSAYRLWWFQACTELGYFQVAPKYDSVRSHQINTTFHLDLCKSLFGKDVYPKVDATNLYYGGDRLAATKIIFTNGSEDPWRHASKQNSTHEMPSYIIKCRNCGHGSDIRGCPQSPMVIEGKSNNCSLPDYVNKVRQQMVEHIDLWLSECRQSIRSSI	not failed
MVQNLSREQYGFVIWVVGNNSIPEEIRSLTTFLSWENLGTCLLLDPNAHVGSLCCSHRRVLLVEEFLGSYLSWGILDFDLFVQSNALNGGVIDMLRRFGVEVHISQPPTKTKKRSNANRKGFPDIELGKAMHSRALERNPSPMLLISSDSRLHTDVSHITSLAFEIILFHTKKAPKDLKDLATKRVLWFDGVSKLTEVRI	failed
MSRSDNGGEDKGLRITRREFLAAAGAGAAAFIVGAVVGSTAFPREKEVVKPGPTQTVTATATETATVTETQTQVQLVEKKYPKVKIANVSELREGQPVFKEYIGHRIVVIKLGEEAVNGVGPDKDIVAFSMLCTHMGGFLIFDGNTKTLICPLHFSQFDPSRGGQPVVGHATEYLPQVILEYDEASGDIFAVGFTALVYGRYDNLQGVKA	failed
MTSRSATATARTSSEARAVARTQTLIKGEHGIGTVRRTTLPGGLRIVTETLPSVRSATFGIWAHVGSRDETPALNGATHYLEHLLFKGTRKRSALDISSAIDAVGGEMNAFTAKEYTCYYARVLDTDLPLAIDVVCDMLTGSLIQEEDVDVERGAILEEIAMTEDDPGDCVHDLFAHTMFGDNALGRPVLGTVDTVNALTADRIRRFYRKHYDPTHLVVAAAGNVDHNKVVRQVRAAFEKSGALKDPAAQPLAPRAGRRTVRAAGRVELIGRKTEQAHVILGMPGLARTDERRWAMGVLNTALGGGMSSRLFQEVREKRGLAYSVYSYTSGFADCGLFGVYAGCRPSQVHDVLKICRDELDHVAEHGLTDDEIGRAVGQLQGSTVLGLEDTGALMNRIGKSELCWGEQMSVDDMLARIASVTPDDVRAVARDVLGRRPSLSVIGPLKDKQASRLHDAVA	failed
MEQYKLVLEGAKQLKWETNEIKDIQDDEIIVKTIAGSISIGAELPQYNGSDVTDPHPFYPRKTGYESYGEVIEVGNQVTHVNVGDKVVSFYGHETIGIVKAHKVIRVPSSIQPKIALLSILSCDAAKGVLKLNPRQDEKVLIIGMGVIGLLACYFLKYYVGIEHVDVVEPNKNRRDFAKKFGTKNIYDSEEKIIETYNYGFECSATNSGFHTLQKALKTNGKICILSDGNIEELTLTANFYQKELQIIGSSDGYDYQKHADWFFEEIGKTPFIEEIFQHEIHYTSLIQCFDELSLGIIKPLKVYVSYE	failed
MLRSSSVDRKREEEPRLSYMIARVDRIISKYLTEHLSALEISLPQFTALSVLAAKPNLSNAKLAERSFIKPQSANKILQDLLANGWIEKAPDPTHGRRILVTVTPSGLDKLNQCNQVVQQLEAQMLQGVDINLAFLIRNNLELMVKNLSTFSSLDQSKE	not failed
NSTWSGESKTLVLSNLSYSATEETLQEVFEKATFIKVPQNQNGKSKGYAFIEFASFEDAKEALNSCNKREIEGRAIRLELQGPRGSPN	not failed
MAQHFLLTQKAKTLSAFEIANISEAEAFDLLCEARWGSKENVVCSKCGVQHKAYFISIRKQWRCKHCHHTFSVTSGTIFANHKLPLKTYLYILIRFVNAVKGVSALEISRDAKINYRTAFVLCHKLRKALLESRDMQPLSGEVDMGGTYIHPAPRKANKKADRIDYRLKENQNPNKRCVVVAREHFSADEKAENSLYRGAKRSHVFVTYSETQSVVKNFAHAYIEKNSRINTDENTAYESLLLDYDLRTVNHKDEYRSDFGVTNNQAESFFSRFKRMYYGHVHKMSNTYLLNYANEIAYREDNRRKPNGWQFHDILGKCLETTNEQNEWCGYWQRKIFHQEVIWQ	failed
ILWSQFLKFKEMELPAKEADKNRSKGIYQSLEGAVQAGQLKVPPGYHPLDVEKEWGKLHVAILEREKQLRSEFERLECLQRIVTKLQMEAGLCEEQLHQADALLQSDIRLLAAGKVPQRAGEVERDLDKADSMIRLLFNDVQTLKDGRHPQGEQMYRRVYRLHERLVAIRTEYNLRLK	failed
